# T1: Developmental Pluripotency Associated 2 (DPPA2), endogenous (human (endogenous in NCI-H661), UniProt Q7Z7J5 1-298)
# T1 construct: DPPA2, human, endogenous in NCI-H661 non-small cell lung cancer cells; source: endogenous, NCI-H661 whole cell lysate
# T1 sequence (looked up): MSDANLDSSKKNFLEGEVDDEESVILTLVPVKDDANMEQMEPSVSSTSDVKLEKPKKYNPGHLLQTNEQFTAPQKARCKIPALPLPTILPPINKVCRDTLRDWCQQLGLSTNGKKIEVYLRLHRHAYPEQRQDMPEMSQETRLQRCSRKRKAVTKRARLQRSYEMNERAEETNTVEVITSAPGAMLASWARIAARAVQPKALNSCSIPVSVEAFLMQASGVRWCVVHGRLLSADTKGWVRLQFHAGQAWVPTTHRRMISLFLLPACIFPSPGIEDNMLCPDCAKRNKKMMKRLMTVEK
# Molecular target: T1, Developmental Pluripotency Associated 2 …
# Assay: affinity purification with mass spectrometry; endogenous DPPA2 or DPPA4 immunoprecipitated from NCI-H661 whole cell lysates (n=4 per condition); enrichment against species matched IgG IP by label-free quantitation; relative iBAQ for stoichiometry
# Details: partners not purified
binder,measurement,value
"Developmental Pluripotency Associated 4 (DPPA4), endogenous (natural protein, human (endogenous in NCI-H661), UniProt Q7L190 1-304, looked up, DPPA4, human, endogenous in NCI-H661 non-small cell lung cancer cells; source: endogenous, NCI-H661 whole cell lysate) MLRGSASSTSMEKAKGKEWTSTEKSREEDQQASNQPNSIALPGTSAKRTKEKMSIKGSKVLCPKKKAEHTDNPRPQKKIPIPPLPSKLPPVNLIHRDILRAWCQQLKLSSKGQKLDAYKRLCAFAYPNQKDFPSTAKEAKIRKSLQKKLKVEKGETSLQSSETHPPEVALPPVGEPPALENSTALLEGVNTVVVTTSAPEALLASWARISARARTPEAVESPQEASGVRWCVVHGKSLPADTDGWVHLQFHAGQAWVPEKQEGRVSALFLLPASNFPPPHLEDNMLCPKCVHRNKVLIKSLQWE",ratio between DPPA2 and DPPA4 (relative iBAQ) in the DPPA2-IP,> 1

# From article doi:10.1101/2025.04.27.650876, “Embryonic stem cell factors DPPA2/4 facilitate a unique chromatin state in non-small cell lung cancer” (bioRxiv, 2025)
